Patent US20210284734A1

Molecular target: cyno PD1
Test: flow cytometry, PD-1-transfected CHO-S cells; mAb 10 ug/ml, then R-PE PD-L1-Fc as blocked ligand

cyno PD1, sequence (receptor, as listed by the source limits assumed): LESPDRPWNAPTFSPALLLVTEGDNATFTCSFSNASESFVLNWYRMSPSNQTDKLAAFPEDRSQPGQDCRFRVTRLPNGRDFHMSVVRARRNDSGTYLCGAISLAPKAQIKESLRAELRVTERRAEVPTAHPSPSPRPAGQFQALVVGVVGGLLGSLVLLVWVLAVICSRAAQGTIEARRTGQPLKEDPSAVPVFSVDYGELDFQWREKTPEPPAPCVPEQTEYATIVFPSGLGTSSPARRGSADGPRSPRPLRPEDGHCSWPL
pembrolizumab analogue (antibody), sequence (VH): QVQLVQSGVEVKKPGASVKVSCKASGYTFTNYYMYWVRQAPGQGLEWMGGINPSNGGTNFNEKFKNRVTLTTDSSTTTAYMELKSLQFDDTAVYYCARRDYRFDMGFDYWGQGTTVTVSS
pembrolizumab analogue (antibody), sequence (VL): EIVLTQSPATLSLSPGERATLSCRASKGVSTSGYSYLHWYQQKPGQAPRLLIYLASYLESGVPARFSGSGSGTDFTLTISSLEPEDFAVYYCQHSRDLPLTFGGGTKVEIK

- % of all cells in Q2 of panel PD-L1 binding (PD-L1+, CFSE+ cyno PD1 cells): 0.38%
- % of all cells in Q3 of panel PD-L1 binding (PD-L1-, CFSE+ cyno PD1 cells): 52.5%
- % of cyno PD1-gated cells in Q1 (mAb+, PD-L1-): 44.7%
- % of cyno PD1-gated cells in Q2 (mAb+, PD-L1+): 3.84%
- % of cyno PD1-gated cells in Q3 (mAb-, PD-L1+): 0.92%
- % of cyno PD1-gated cells in Q4 (mAb-, PD-L1-): 50.6%
Substance: pembrolizumab analogue (antibody)
